± gives the uncertainty stated by the source.
Assay: amyloid nucleation score (Sup35N fusion, yeast selection) (log enrichment); library NNK2; higher = more nucleation; inactive = no reads after selection
Outline: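 The nucleation score is the log enrichment of output over input reads, calculated with DiMSum and centred on the mode score of non-aggregating sequences. Sequences with under 100 input reads were excluded. Reads came from Illumina sequencing of plasmid inserts from psi-negative yeast expressing Sup35N fused to peptides of 20 random codons, induced 24 hours with 100 μM copper sulfate and grown 7 days at 30°C without adenine and uracil.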

ATVSDYKVHGSDLFSFTVND
amyloid nucleation score: 8.299 ± 0.058

ATYINLVINSKSARLFLICG
amyloid nucleation score: 4.732 ± 0.036

AVAVACLDH
amyloid nucleation score: 0.713 ± 0.58

AVCITFLSSCAIFFDSPVRV
amyloid nucleation score: 6.409 ± 0.047

AVCWYNVQVRSSRNLYGQPK
amyloid nucleation score: 0.221 ± 0.5

AVFNGFKNNSLV
amyloid nucleation score: -0.146 ± 1

AVGNNN
amyloid nucleation score: -1.11 ± 0.74

AVIDIIKRTSCTCDESCCIR
amyloid nucleation score: 0.415 ± 0.31

AVIMRFVYYDAYWGLWMVKE
amyloid nucleation score: 0.228 ± 1

AVLSITMKGVVWKGLSNLCC
amyloid nucleation score: inactive

AVRYSLFF
amyloid nucleation score: 5.09 ± 0.054

AVSFRFIGVYRGM
amyloid nucleation score: 3.95 ± 0.12

AWACYSECQDIRGNYSEVVL
amyloid nucleation score: -0.671 ± 0.48

AWDRDVNDENLVSIYMCRKL
amyloid nucleation score: -0.233 ± 0.32

AWGHIHAVPMYNALLYNSHD
amyloid nucleation score: 0.695 ± 0.66

AWLLTLPKLYSLEC
amyloid nucleation score: -0.434 ± 0.6

AWSVIEGFQHREAFVTYRGQ
amyloid nucleation score: 3.7 ± 0.063

AYCCINLHYNLKVS
amyloid nucleation score: 0.665 ± 0.65

AYDFGVA
amyloid nucleation score: -0.263 ± 1.1

AYFKYCSSLRGSIRDNRADW
amyloid nucleation score: 0.113 ± 0.63

AYHDYLSRGGTHVVVCYYLS
amyloid nucleation score: inactive

AYRSDCIRHGGPFAGYNICI
amyloid nucleation score: 0.044 ± 1.1

AYSDNTFRQCSISVL
amyloid nucleation score: 0.218 ± 0.8

CAGPPLLAKVGWIIMYSLVV
amyloid nucleation score: 0.258 ± 0.55

CAIAWRMPLDRPPLKE
amyloid nucleation score: -0.627 ± 0.76

CARNTIAWVSNGMEFGSTGG
amyloid nucleation score: -0.582 ± 0.76

CAVDLFGVAIRALMFRSWGC
amyloid nucleation score: inactive

CAYGLFVNVFSVDADLRYKY
amyloid nucleation score: 7.544 ± 0.022

CCMCCNDYCRPCFREGVWIG
amyloid nucleation score: -0.121 ± 1.1

CCSFNLISLYSKVRARSELP
amyloid nucleation score: 8.765 ± 0.029

CCVEPVVRDVEVKIRSVVMN
amyloid nucleation score: 0.123 ± 0.56

CCVMVELLVYFPM
amyloid nucleation score: 1.88 ± 0.098

CDANM
amyloid nucleation score: 0.785 ± 0.51

CDFMYRLMSTYTHTFLVSLR
amyloid nucleation score: 1.41 ± 0.14

CDGTLCWKPGWYGDQKFERR
amyloid nucleation score: 1.32 ± 0.36

CDLIASQSVIAIVNIMIRHV
amyloid nucleation score: 6.63 ± 0.062

CDSAAFRPYLFSAENLSLYK
amyloid nucleation score: 0.53 ± 0.66

CDSDSLGVTYVDDDCGYNYC
amyloid nucleation score: -1.03 ± 0.55

CDSKVENIWVDLNEMYFFCN
amyloid nucleation score: 2.54 ± 0.17

CDVNYL
amyloid nucleation score: -0.681 ± 0.3

CEHDCSPTYDGLSYASFVRE
amyloid nucleation score: 0.219 ± 0.5

CFAGLFLLSSEFFYRLTSRR
amyloid nucleation score: 1.58 ± 0.12

CFCLPSNSNI
amyloid nucleation score: 1.19 ± 0.09

CFCMINTCYSVINSFTYYGK
amyloid nucleation score: 8.047 ± 0.066

CFDCNIRGSVWKVYISLIVG
amyloid nucleation score: inactive

CFEVFRFRRNRSLISPYQRM
amyloid nucleation score: 0.612 ± 0.62

CFGISSS
amyloid nucleation score: -1.12 ± 0.36

CFGRMVTSNSSDLRYSNDRL
amyloid nucleation score: 1.56 ± 0.097

CFHVITVNPGLQ
amyloid nucleation score: 1.37 ± 0.39

CFLTNRTRNSYRPSGKPLDM
amyloid nucleation score: -0.702 ± 0.61

CFNTTNEMRSTSSWLRYGSV
amyloid nucleation score: 3.83 ± 0.054

CFPPFLC
amyloid nucleation score: 0.13 ± 1.1

CFRFLGREECKLTFGSDEMI
amyloid nucleation score: inactive

CFTCHTIYCVYSKFKRDMDR
amyloid nucleation score: 3.56 ± 0.047

CFTGFRVIMVNICEWCVVVS
amyloid nucleation score: 3.9 ± 0.098

CFVYLDLLYMEMMYHRQVAY
amyloid nucleation score: -0.552 ± 0.34

CGATQHSGTQVDLKLGFI
amyloid nucleation score: -0.321 ± 1.1

CGNSHMYMNAGDFT
amyloid nucleation score: -0.293 ± 0.79

CGVASSHFDGLLNR
amyloid nucleation score: 2.58 ± 0.12

CGVPNYQLVVEWMMTNRVGN
amyloid nucleation score: -0.888 ± 0.78

CGWGYLTCPSRTVVWARAGV
amyloid nucleation score: 1.35 ± 0.25

CGYLRDTWWFFCVTLRNRGV
amyloid nucleation score: 1.12 ± 0.27

CHGRGISYQLLQNRNQQP
amyloid nucleation score: 0.08 ± 0.79

CHIGN
amyloid nucleation score: inactive

CHLFVFLGLPRQWVKSRPYA
amyloid nucleation score: 0.18 ± 0.22

CHSNKSCRSHIEEI
amyloid nucleation score: -0.377 ± 0.5

CHSRLLEYGENCNRIEYCLC
amyloid nucleation score: -0.459 ± 0.27

CIDVSLFNGHACWIVCFSPV
amyloid nucleation score: 5.48 ± 0.045

CIELLYEYAIDLQAWVLLER
amyloid nucleation score: 0.389 ± 0.66

CIEMFFETVFTKGLSRYACW
amyloid nucleation score: -0.55 ± 0.3

CIFFLVV
amyloid nucleation score: 4.79 ± 0.071

CIGSLNVAVW
amyloid nucleation score: 0.152 ± 0.21

CIGSRRGQSTSSVYRWSHYL
amyloid nucleation score: 0.192 ± 0.46

CIINNKIQVAVKNDYLDHRE
amyloid nucleation score: 4.69 ± 0.1

CILLTGPSYSLKLAYSDCLS
amyloid nucleation score: -1.15 ± 0.43

CISSMVALMGGPWNEMLGTW
amyloid nucleation score: 0.767 ± 0.74

CISTYN
amyloid nucleation score: -0.822 ± 0.44

CIYMSRSRRKCGCSLGTRYV
amyloid nucleation score: -0.393 ± 1

CKCPYFLCIRFWDVDSAMLS
amyloid nucleation score: 2.21 ± 0.076

CKEDIISSEWYLSVGFA
amyloid nucleation score: inactive

CKLIFYTYPDYIYILIVKSS
amyloid nucleation score: inactive

CKRFFYFLGIPATPDRSAFS
amyloid nucleation score: -0.588 ± 0.76

CKRSWVSYMHW
amyloid nucleation score: -0.593 ± 1.1

CKSFNSFSETPKYAKVVPRA
amyloid nucleation score: 0.633 ± 0.56

CLGFGRSSPTGYNTCVVRNY
amyloid nucleation score: -0.493 ± 1.1

CLGRLMVYSAYYVHLYGVTI
amyloid nucleation score: -1.29 ± 0.62

CLGTWPNLLGSISTMYAD
amyloid nucleation score: 0.854 ± 0.53

CLIVFIADTAAYIKVSMSSV
amyloid nucleation score: inactive

CLLWVAQYVQAMEGVALSVG
amyloid nucleation score: 1.5 ± 0.21

CLNCI
amyloid nucleation score: -0.497 ± 1

CLNWKYKNRELQVFNDSRVV
amyloid nucleation score: -2.77 ± 0.75

CLPGSH
amyloid nucleation score: 0.535 ± 0.74

CLPNTST
amyloid nucleation score: 0.075 ± 0.2

CLQFLSRYRVWPSHSFWGEY
amyloid nucleation score: 3.68 ± 0.07

CLQSPLYFDWGSGIQISNWL
amyloid nucleation score: inactive

CLRGDNKISLDRSGGMTFGQ
amyloid nucleation score: 1.79 ± 0.18

CLSCANL
amyloid nucleation score: 0.486 ± 0.66

CLSDNC
amyloid nucleation score: -0.13 ± 0.74

CLSLSLVMSVGVLKSISQYS
amyloid nucleation score: -0.017 ± 1

CLSMFTVWSLAFASLSVTMR
amyloid nucleation score: -0.034 ± 0.45

CLSRLNVLWYSPFKHFILEC
amyloid nucleation score: -0.267 ± 0.45

CLTYYTCLTWKMPCGIRHQG
amyloid nucleation score: 0.428 ± 0.22

CLWSTN
amyloid nucleation score: 0.801 ± 0.58

CLYFFLSYRSCCINVFLGFC
amyloid nucleation score: -0.326 ± 1

CMAIDLPVHYS
amyloid nucleation score: 0.005 ± 0.55

CMKKWFS
amyloid nucleation score: 3.85 ± 0.075

CMREATFRLTSKFLSSFGL
amyloid nucleation score: 4.04 ± 0.086

CMVNPVPWDCLVRKFMFVGA
amyloid nucleation score: -0.421 ± 0.35

CMWLLMTHPHKVTIMQ
amyloid nucleation score: 7.262 ± 0.061

CNFLFYPFWCWLSICYFRSM
amyloid nucleation score: 4.55 ± 0.085

CNPIGIMHN
amyloid nucleation score: inactive

CNPVAV
amyloid nucleation score: 0.8 ± 0.66

CNVASFELVLRD
amyloid nucleation score: inactive

CNYVQIMLS
amyloid nucleation score: 2.81 ± 0.056

CPHGCIQTARYQQ
amyloid nucleation score: 1.19 ± 0.42

CPISCTYMEYTSWSSSRC
amyloid nucleation score: 1.18 ± 0.44

CPLMNLYRNVFYVWKLNFLP
amyloid nucleation score: inactive

CPLRLTRGLKCRVYINWEHQ
amyloid nucleation score: 0.354 ± 0.48

CPRVSVSSVLMGKLFL
amyloid nucleation score: -1.15 ± 0.54

CPSYSTMSTGFVERVLPTGR
amyloid nucleation score: 1.53 ± 0.39

CPVLG
amyloid nucleation score: 1.87 ± 0.32

CQIVGRHIGVRMCDDRVYRA
amyloid nucleation score: 0.762 ± 0.6

CQLFMQSSRCIRRRFATSAC
amyloid nucleation score: -0.295 ± 0.76

CQRQRLNFY
amyloid nucleation score: -0.626 ± 1.1

CQSLIFASTYHRNSSFGKNV
amyloid nucleation score: 2.92 ± 0.16

CQWSVGRLRSLRAESVVQFD
amyloid nucleation score: 0.104 ± 0.35

CRAFVWQ
amyloid nucleation score: -0.889 ± 0.55
